Data as given in the RNAGym collection of RNA variant scans (doi:10.1021/acssynbio.7b00057).

B1: Pistol ribozyme (parent)
chain: GGGUCGUUGUUCCAUAAUCGCGUGGAUAUGGCACGCAAGUUUCUACCGGGCACCGUAAAUGUCCGACUGGAGCCGUUCGGGCGGCUAUAAACAGACCUCAGGCCCGAAGCGUGGCGGCACCUGCCGCCGGUGGUAAAAAAGAUCGGAAGAGCACACGUCU

Variants of: B1
Experiment: aptazyme ON/OFF ratio, guanine; higher = stronger switching; co-transcriptional cleavage with and without guanine

Compared with GGGUCGGGAUAGUAUAAUCGCGUGGAUAUGGCACGCAAGUUUCUACCGGGCACCGUAAAUGUCCGACUGGAGCCGUUCGGGCGGCUAUAAACAGACCUCAGGCCCGAAGCGUGGCGGCACCUGCCGCCGGUGGUAAAAAAGAUCGGAAGAGCACACGUCU, GGGUCGGGAUAGGAUAAUCGCGUGGAUAUGGCACGCAAGUUUCUACCGGGCACCGUAAAUGUCCGACUGGAGCCGUUCGGGCGGCUAUAAACAGACCUCAGGCCCGAAGCGUGGCGGCACCUGCCGCCGGUGGUAAAAAAGAUCGGAAGAGCACACGUCU is lower in “aptazyme ON/OFF ratio” value: 1.15 for the first, 1.06 for the second.

Compared with GGGUCGGGAUAGAAUAAUCGCGUGGAUAUGGCACGCAAGUUUCUACCGGGCACCGUAAAUGUCCGACUGGAGCCGUUCGGGCGGCUAUAAACAGACCUCAGGCCCGAAGCGUGGCGGCACCUGCCGCCGGUGGUAAAAAAGAUCGGAAGAGCACACGUCU, GGGUCGGGAGGCCAUAAUCGCGUGGAUAUGGCACGCAAGUUUCUACCGGGCACCGUAAAUGUCCGACUGGAGCCGUUCGGGCGGCUAUAAACAGACCUCAGGCCCGAAGCGUGGCGGCACCUGCCGCCGGUGGUAAAAAAGAUCGGAAGAGCACACGUCU is higher in “aptazyme ON/OFF ratio” value: 1.03 for the first, 1.61 for the second.

Compared with GGGUCGGGAUAGCAUAAUCGCGUGGAUAUGGCACGCAAGUUUCUACCGGGCACCGUAAAUGUCCGACUGGAGCCGUUCGGGCGGCUAUAAACAGACCUCAGGCCCGAAGCGUGGCGGCACCUGCCGCCGGUGGUAAAAAAGAUCGGAAGAGCACACGUCU, GGGUCGGGAUAACAUAAUCGCGUGGAUAUGGCACGCAAGUUUCUACCGGGCACCGUAAAUGUCCGACUGGAGCCGUUCGGGCGGCUAUAAACAGACCUCAGGCCCGAAGCGUGGCGGCACCUGCCGCCGGUGGUAAAAAAGAUCGGAAGAGCACACGUCU is higher in “aptazyme ON/OFF ratio” value: 1.12 for the first, 1.38 for the second.

Going from GGGUCGGGAGGUCAUAAUCGCGUGGAUAUGGCACGCAAGUUUCUACCGGGCACCGUAAAUGUCCGACUGGAGCCGUUCGGGCGGCUAUAAACAGACCUCAGGCCCGAAGCGUGGCGGCACCUGCCGCCGGUGGUAAAAAAGAUCGGAAGAGCACACGUCU to GGGUCGGGAGGACAUAAUCGCGUGGAUAUGGCACGCAAGUUUCUACCGGGCACCGUAAAUGUCCGACUGGAGCCGUUCGGGCGGCUAUAAACAGACCUCAGGCCCGAAGCGUGGCGGCACCUGCCGCCGGUGGUAAAAAAGAUCGGAAGAGCACACGUCU, the “aptazyme ON/OFF ratio” value falls from 1.43 to 1.21.

First: GGGUCGGGAGGGCAUAAUCGCGUGGAUAUGGCACGCAAGUUUCUACCGGGCACCGUAAAUGUCCGACUGGAGCCGUUCGGGCGGCUAUAAACAGACCUCAGGCCCGAAGCGUGGCGGCACCUGCCGCCGGUGGUAAAAAAGAUCGGAAGAGCACACGUCU
Second: GGGUCGGGAGGAAAUAAUCGCGUGGAUAUGGCACGCAAGUUUCUACCGGGCACCGUAAAUGUCCGACUGGAGCCGUUCGGGCGGCUAUAAACAGACCUCAGGCCCGAAGCGUGGCGGCACCUGCCGCCGGUGGUAAAAAAGAUCGGAAGAGCACACGUCU
The “aptazyme ON/OFF ratio” value of the first is higher: 1.3 for the first, 1.1 for the second.

First: GGGUCGGGAGGAUAUAAUCGCGUGGAUAUGGCACGCAAGUUUCUACCGGGCACCGUAAAUGUCCGACUGGAGCCGUUCGGGCGGCUAUAAACAGACCUCAGGCCCGAAGCGUGGCGGCACCUGCCGCCGGUGGUAAAAAAGAUCGGAAGAGCACACGUCU
Second: GGGUCGGGAGGAGAUAAUCGCGUGGAUAUGGCACGCAAGUUUCUACCGGGCACCGUAAAUGUCCGACUGGAGCCGUUCGGGCGGCUAUAAACAGACCUCAGGCCCGAAGCGUGGCGGCACCUGCCGCCGGUGGUAAAAAAGAUCGGAAGAGCACACGUCU
The “aptazyme ON/OFF ratio” value of the first is higher: 1.17 for the first, 1.15 for the second.

Going from GGGUCGGGAGCUAAUAAUCGCGUGGAUAUGGCACGCAAGUUUCUACCGGGCACCGUAAAUGUCCGACUGGAGCCGUUCGGGCGGCUAUAAACAGACCUCAGGCCCGAAGCGUGGCGGCACCUGCCGCCGGUGGUAAAAAAGAUCGGAAGAGCACACGUCU to GGGUCGGGAGCUGAUAAUCGCGUGGAUAUGGCACGCAAGUUUCUACCGGGCACCGUAAAUGUCCGACUGGAGCCGUUCGGGCGGCUAUAAACAGACCUCAGGCCCGAAGCGUGGCGGCACCUGCCGCCGGUGGUAAAAAAGAUCGGAAGAGCACACGUCU, the “aptazyme ON/OFF ratio” value rises from 1.07 to 1.27.

First: GGGUCGGGAGCUUAUAAUCGCGUGGAUAUGGCACGCAAGUUUCUACCGGGCACCGUAAAUGUCCGACUGGAGCCGUUCGGGCGGCUAUAAACAGACCUCAGGCCCGAAGCGUGGCGGCACCUGCCGCCGGUGGUAAAAAAGAUCGGAAGAGCACACGUCU
Second: GGGUCGGGAGGGAAUAAUCGCGUGGAUAUGGCACGCAAGUUUCUACCGGGCACCGUAAAUGUCCGACUGGAGCCGUUCGGGCGGCUAUAAACAGACCUCAGGCCCGAAGCGUGGCGGCACCUGCCGCCGGUGGUAAAAAAGAUCGGAAGAGCACACGUCU
The “aptazyme ON/OFF ratio” value of the first is higher: 1.29 for the first, 1.23 for the second.

Compared with GGGUCGGGAGGGUAUAAUCGCGUGGAUAUGGCACGCAAGUUUCUACCGGGCACCGUAAAUGUCCGACUGGAGCCGUUCGGGCGGCUAUAAACAGACCUCAGGCCCGAAGCGUGGCGGCACCUGCCGCCGGUGGUAAAAAAGAUCGGAAGAGCACACGUCU, GGGUCGGGAGGGGAUAAUCGCGUGGAUAUGGCACGCAAGUUUCUACCGGGCACCGUAAAUGUCCGACUGGAGCCGUUCGGGCGGCUAUAAACAGACCUCAGGCCCGAAGCGUGGCGGCACCUGCCGCCGGUGGUAAAAAAGAUCGGAAGAGCACACGUCU is higher in “aptazyme ON/OFF ratio” value: 1.11 for the first, 1.25 for the second.
